From the DeepSol protein solubility set come the findings set out here.

This data set can be described thus: soluble on expression in E. coli; label from the status in PepcDB or PDB records.
“MNVLGRITAMPDLPEPLEGLKEIAYNLWWSWNPEAAELFQELDPALWKRFRGNPVKLLLELDPARLEALSASGYAARVQATREALRAYLEARRTKRGPLVAYFSAEYGFHSSLPIYAGGLGVLAGDHVKAASDLGLNLVGVGLFYHEGYFHQRLSPEGEQVEVYEPLRPEELPLVPVQDAEGRPVRVAVEFPGRLVHVGGYRVQVGAVPVYLLTTDLPENAPEDRQITARLYAAGLEARIQQELVLGLGGVRFLRALGLAPAFFHMNEGHSAFLGLERLRELVAEGYPFREALELARASALFTTHTPVPAGHDVFPLDLVDRYLGGFWEKLGVDRDTFLGLGLEEKPWGPVFSMSNLALRTAAQANGVSRLHGEVSRNMFRHLWPGLLAEEVPIGHVTNGVHTWTFLHPRLRRHYAEVFGPEWVERPEDPETWRVEGLGEAFWRIRQDLKLFLVREVRQRLYEQRRRNGEGPARLREAEKALDPEALTIGFARRFATYKRAVLLFKDPERLLRILKGPYPVQFVFAGKAHPKDEAGKAYLQELVSKIREYGLEDRMVVLEDYDMYLARVLTHGSDVWLNTPRRPMEASGTSGMKAALNGALNLSVLDGWWAEAYNGKNGFAIGDERVYESEEAQDVADAQALYDLLESEVIPLFYAKGLEGYSSGWMSMVHESLRTVGPYFSAGRMVRDYLALYERGALWEKEARARLEALKAFAEALSAFHALGVRPEVPGDLTLNGGRLEVGSVLEGEVPEGLRPHLRVQLVVRRLGGGLEVVDLEEVAPGRYRTAFRPTRPGSYTYGLRLALLHPVTGRVEWVRWA”: the “soluble on expression in E. coli” value is on record as “soluble”.

Take “MDTRTRHLKVSNCPNNSYALANVAAVSPNDFPNNIYIIIDNLFVFTTRHSNDIPPGTIGFNGNQRTWGGWSLNQDVQAKAFDLFKYSGKQSYLGSIDIDISFRARGKAVSTVFDQDELAKQFVRCYESQIFSPTQYLIMEFQGHFFDLKIRNVQAIDLGDIEPTSAVATGIETKGILTKQTQINFFKGR”: the “soluble on expression in E. coli” value was “soluble”.

Consider “MPVLSIIACGMLEDELVHVLSKDCELKQLIVVENGNNSGFLRKLRAGKCIPRTIPLDRVQMFFKTGFNPDFETLAKFLAPFPFLGKVCEKMNEKAGQQVSVVVNLLRLGLHADLELLKSEVFRNIREMAAFSDGILIFYGTCGHVLGELEKDFIDLGCPLFFLKDKAGEIVEDCISTALGGNEAYARAMLACRGKGTIYLTPMWASSWKNFEKGSGSKDLNNRYLKNSRYCLAVKIETGISYEPDFHQNVQEFARTFGMKTITLKGSSEITEQGYFDARKALVKNSDCLPKNHQDMEFLEHHHHHH”, for which the “soluble on expression in E. coli” value was “not soluble”.

With “MGSDKIHHHHHHMSKVSLTIPPDFILGAAASAWQTEGWSGKKAGQDSYLDLWYKQDRQVWHNGYGPAKATDFFNRYREDVALMKLAGLTHYRTSINWSRFMLDYEKGIVDEEYAAYIDNLLDEMHRQGIEPMICLEHYELPACLLEKYQGWSSKQVVEWFVLYADTVFARYAGKVKRWFTFNEPIVVQTRVYLDALRYPYEQNTHTWMQWNHHKNLATAKVVQRFRQKGYDREGGSIGVILNPEVTYPRSRAAHDVKAAHLYDLFYNRVFLDPALKGEYPAELIALLAQHQVKWDYTEEELAIIRDNTVDEVGINLYYPHRVKAPSREWNKETPFHPAYYYEHFELPGRRMNTSRGWEINPKIIYDMAKRIEREYDNVPWFVAENGIGIENEARFKDDAGVIQDDYRIAFIAEHLYWTLKAKEEGANCRGYMLWAFTDNVSPMNAFKNRYGLIEIDLEQDRQRRPKKSAAWFRQLHDTRQLELTLDDEEK”, the “soluble on expression in E. coli” value was “not soluble”.

Turning to “MPLLSVIIPFGLSKERPYIEERVLQKAKFFQSDENIEFIFVEGYSSKDHELKNFIQANHHIYLKDMDQKAFSQGRCRNLGASYAHSNVLLFLDVDCYISLDNFEKILKLIQIKNISQNINALIVLPVVYLNKEANEKLKQYDDKFWDILIQEDLFTAKNTWVKFFAPSSTSSIVINKHQFLRLGGNDENFIGHGYEDFDLFARILKACVSFEKMPTNLSYDARNWNFFNFKGFRSWFSLLGYEACFYGIYIYHFYHIEPNQNAYMQNKDKNHQLFYKHLKNIKKHDLKPLQVFKAKGEKVLMLFKDQNYDFKDISVYVGEIIYKNISDFFIAKELKYELLLDFLQQEKITKIFLDASIKLQFNGIDYCDIFYFQKGILPHSWFFAKKLDLGYKQDLNLSEQKLYQVKEYFLTLKEDEKKVILDFLSQNNDDKYDLYKMLYYLINELYSFEHDGIFYQIIIDKEKMLIAQKHDKSFYPLRSFVYKPYLHELKSIRPFSFLMKILGLEYLGAMISHTKFYRLARKLFFNPKGFFEDFNYKIMKGKI”, the “soluble on expression in E. coli” value is reported as “not soluble”.

On to “GPGSMSTWEQAVEEADKAFAKRDCKAVCEIIEKAESDGTCHVQLMWRRARALHTLGDESLDKSEKERYARDAAVAAERAVEEDPTSAEANLWKAICIGILCDYLTTKERMSNVYVIRDHLLRSLELKSDNPDALHGMGMWSLSLLQISWFERSAASLLFGSLPTVSHEECLKYFLASHELRPSIRNCLALGNLFRYQGNWTEAKTWYQKALDIPAETHAHKQKQDEAVQLLNSC”, for which the “soluble on expression in E. coli” value is recorded as “soluble”.

Consider “MNMNKETHICALCERKVPKITEHHLIPREKGGRFDETTWLCVPCHKQVHALYSNYELAVRLNSLPRLKDDEKIKRYLKFIKKQPGDANVTIKKSKAIRKKGRYLEHHHHHH”, for which the “soluble on expression in E. coli” value is given as “not soluble”.

Take “MGSDKIHHHHHHMLGTLKKLRSRLDEADLVQYNLVVGDQELPLNPLIGQTLSLTHTGNIFCCNCGRKTKKSYSQGHCFPCMQKLASCDMCIMKPETCHFDQGTCREPQWAQSHCFVPHYVYLSNTSGIKVGITRNNQLPTRWIDQGATQGLAIFKVSTRQLSGLIEVELAKLVKDKTNWQAMLKSNAADIDLNAKAQELIPHIEHRLNELAMEKGEYKIERLTETIQQINYPMTAFPKKISSHNFDKVPEVTGVLLGIKGQYLIFDTGVINIRKFSAYEVTVTTN”: the “soluble on expression in E. coli” value is “not soluble”.

Take “MQTYGGGWVLFQNRFDDSESYWDRKWDEYKNGFGDVDENSNFWLGNEALHVMTTNKKVTLRVEMYGDRTPNSKNATDFWFGHYFDFQVGSKTQNYPLLDLTMDWANPIGNASTAWYDLTCSIGSPFSTIDNIHDPVKECVTKFQMG”: the “soluble on expression in E. coli” value was “not soluble”.

Turning to “MDEYRELISVLPLETVEYAFAYGSGAIQQQNEDKSEKMVDFVIVTKNAQEFHRDNILKNPQHYSLLRLMGPKMIEKIQCNFAARVYYNTHVKVGKRKIKYGVISYENVKQDLLDWRWIYISGRLHKPVLEVIKPRQDMCDLVTENRRSALHSSLLLLPESFTLKQLFHKIVGLSYTGDFRMVVGEDKNKINKIVEGNYEELLRVYEPLMNDDARLSVMSPAKLIQDGSTTAIYHRLNLLPSEVLNRIQKNMNRVQKRQRDAEEVIFSLAHRHDVAATVETAIGGIIRPVSLSQTAKNAFSAGVTRSIIYSMAKMSKFLKSK”, the “soluble on expression in E. coli” value is given as “not soluble”.

Consider “MNDKKLLVAYDISSNRRRRKVARILEQCGIRINKSVFICSLRELTMDKLVEAVTSQTAKRDKVFFLPLCQHCYTAAWMSGHPTLPKSRRKRKSIVV”, for which the “soluble on expression in E. coli” value is “not soluble”.

Consider “MIGPISQINISGGLSEKETSSLISNEELKNIITQLETDISDGSWFHKNYSRMDVEVMPALVIQANNKYPEMNLNLVTSPLDLSIEIKNVIENGVRSSRFIINMGEGGIHFSVIDYKHINGKTSLILFEPANFNSMGPAMLAIRTKTAIERYQLPDCHFSMVEMDIQRSSSECGIFSFALAKKLYIERDSLLKIHEDNIKGILSDGKNPLPHDKLDPYLPVTFYKHTQGKKRLNEYLNTNPQGVGTVVNKKNETIVNRFDNNKSIVDGKELSVSVHKKRIAEYKTLLKV”, for which the “soluble on expression in E. coli” value was “not soluble”.

In the case of “MSLSLDQESIEHDLKLTSEEIFHSNGKYIPPMLNTLGQHLSVRKEFFQNFLTFVAKNFNYKISPELKLDLIEKFEILNCCIKFNSIIRQSDVLNDIWEKTLSNYNLTQNEHLTTKTVVINSPDVFPVIFKQFLNHVVFVLFPSQNQNFKLNVTNLINLCFYDGILEEGEKTIRYELLELDPMEVDTSKLPWFINFDYLNCINQCFFDFTFACEEEGSLDSYKEGLLKIVKILYYQFNQFKIWINTQPVKSVNANDNFININNLYDDNHLDWNHVLCKVNLKEQCIQIAEFYKDLSGLVQTLQTLDEGHHHHHH”, the “soluble on expression in E. coli” value was “not soluble”.

With “KGTSENKSTTATDTVQAEKPQSGTIHLTRAEFLKKIADYENHSKEWKYLGDKPAIVDFYADWCGPCKMVAPILEELSKEYAGKIYIYKVNVDKEPELARDFGIQGIPTIWFVPMKGEPQVNMGALSKEQLKGYIDKVLLKQ”, the “soluble on expression in E. coli” value is on record as “soluble”.

In the case of “GPGSMAFGNASKGTDDYTPEEHLTAAVMEYKKLEAANQNSVEHMYNVLSSPFKIGSKPCEAIRGDALRCLSEIIGNFTAKSTSGTDGSTVMANSASIVSQELPPIHRCYESVLHYESCVLERTLSRHNSMVATFEARRLREADSAREAAAAGGDI”, the “soluble on expression in E. coli” value is on record as “not soluble”.

As to “EPQVRESLGRDVMVVVDLSGSMAEPDFTSRTGEKISRLDAAKEVLTEFVQSRKGDRLGLVLFGDAAFVQTPFTADQKVWLELLNQTDVAMAGQSTHLGDAIGLAIKVFEQSDKSRGALEQDQNREKVAIVLTDGNDTGSFVEPIDAAKVAKAKGVRVHVIAMGDPETIGETALDMDTIHRIAKESGGEAFEALNRDELSAAYDEIGKLEPQLYESTTYRPKQSLHH”, the “soluble on expression in E. coli” value is on record as “not soluble”.

As for “MKEDPRIIKTLSKLQKAFVMLLKTYDAGDINVRQISDEAGVTRGAFYSHFSDKKEFVNFTINELVGSLFNSSLEHHHHHH”, the “soluble on expression in E. coli” value is reported as “not soluble”.

Turning to “GMVGINTDTENISELLKTYWSIQRISAGYADQNAASLGLTIQQLAMINVIYSTPGISVADLTKRLIITGSSAAANVDGLISLGLVVKLNKTIPNDSMDLTLKLSKKGEDLSKRSTANAFMYKAMMKVFENLTENEIEELIRLNKKVETLLKKSK”, the “soluble on expression in E. coli” value is reported as “soluble”.

As to “MLNIIRAGIYTSVQDSGRHGFRQSGLSHCGALDKPAFQTANLLVGNDANAPALEITLGQLVVEFENETWFALTGAGCEAQLDDQPVWTGWRLPVKAGQRLTLHRPLHGMRSYLAVAGGIAVPEVMGSYSTDLKSGIGGLEGRLLKDGDRLATGKPSRQFSGPQGVKQLLWGNRIRALPGPEYREFDRASQEAFWRSPWQLSPQSNRMGYRLQGQSLTRTTDRELLSHGLLPGVVQVPYNGQPIVLMNDAQTTGGYPRIACIIEADMYHLAQIPLGQPIHFVQCSLEEALNARRERQRYLEQLTWRLQHEHLEHHHHHH”, the “soluble on expression in E. coli” value is listed as “not soluble”.

Take “MSLAFPKIISVDDHTVEPPDVWRDRLPKKYQDTGPRIVRAPLKEMTFLGGKFAPVMGGPGDDGPLGDWWVYEDLHRPLTRLDTAVGYSRDEIKLEVITYEQMRPGSYDVPRRLADMDVNHVQSALCFPTFPRFCGQTFTEAKDRELGLLGVRAYNDWMVEEWCGPDAHGRLIPLTLVPLWDARLAAAEVRRNAARGVRAVAFSEIPPHLGLPSVHTDDWDPFLAACDETGTVIAMHIGSSSRMPSTSADAPPAVGSTITFANCCFSMVDWLMSGKFERFPNLRVMYAEGQIGWIPYILERADVVWEENRGWGGVADKVHRPPSELFAGHVFGCFFDDAFGLRNLDAIGIGNVLYETDYPHSDSTWPKSREVGEAQMGHLEAEVVERIVRGNAIELLGLTDDGEGHHHHHH”: the “soluble on expression in E. coli” value is reported as “not soluble”.

For “MGSDKIHHHHHHMASLSELAVFIAVAEQGSFVGAGRVLGVSASAVGKRISRLEVDLGVRLLQRNTRSLALTAEGETVLSRGRSLLDEAESLRVVLERSSRQPGGVLRLSLPPIGGVLMAELAAFRQRYPEVALELDYSERNVDIIEEGFDAAIRVGAGDDGKLRSLALPGFRRLIVAAPDYLVRHGQPRSAAQLAEHQLIHYRSPNSGKLEAWPLVNAELPRALVCNSVHARLDFALQGQGIACLPDISIRRELEDGSLRPLLGSENGEKVVLRLLWPSSRGLSARMEAFLGFMRERSGAAPCENFKVRA”, the “soluble on expression in E. coli” value is “not soluble”.
